The source of these data is paper PMC11698917 (Nature Communications, 2025).

Data set [1] has as its target T1, human VANGL2, full-length (FL), purified (human, UniProt Q9ULK5 1-521).
T1 sequence (looked up): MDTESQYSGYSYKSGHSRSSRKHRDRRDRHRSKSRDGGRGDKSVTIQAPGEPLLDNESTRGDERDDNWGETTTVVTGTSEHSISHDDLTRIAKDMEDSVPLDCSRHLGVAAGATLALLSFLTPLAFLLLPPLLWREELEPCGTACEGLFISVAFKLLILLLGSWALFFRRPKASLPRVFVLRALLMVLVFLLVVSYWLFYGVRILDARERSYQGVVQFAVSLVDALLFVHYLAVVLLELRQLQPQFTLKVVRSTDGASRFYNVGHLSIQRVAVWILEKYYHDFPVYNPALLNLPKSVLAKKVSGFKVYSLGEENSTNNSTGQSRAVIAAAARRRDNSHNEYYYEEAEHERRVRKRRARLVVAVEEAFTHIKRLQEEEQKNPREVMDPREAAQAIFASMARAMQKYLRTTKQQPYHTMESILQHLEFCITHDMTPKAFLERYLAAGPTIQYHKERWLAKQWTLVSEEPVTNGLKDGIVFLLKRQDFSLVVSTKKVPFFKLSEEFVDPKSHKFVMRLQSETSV
Description: cryo-EM structure.

The data set “AUC” deals with the molecule itself. The data set can be described thus: AUC.

Values joined by “and” are separate entries in the source; they are usually repeats but may differ in a detail not shown here. Equal entries are not always repeated.

B1: PK1^745-790 peptide, purified from E. coli (peptide, UniProt Q96MT3 745-790, looked up)
chain: NPGMNRFLGLYGEDDDSWCSSSSSSSDSEEEGYFLGQPIPQPRPQR
With B1, the binding result in data set [1] is listed as “binds”.

B2: human VANGL1, full-length (FL), purified (natural protein, UniProt Q8TAA9 1-524, looked up)
chain: MDTESTYSGYSYYSSHSKKSHRQGERTRERHKSPRNKDGRGSEKSVTIQPPTGEPLLGNDSTRTEEVQDDNWGETTTAITGTSEHSISQEDIARISKDMEDSVGLDCKRYLGLTVASFLGLLVFLTPIAFILLPPILWRDELEPCGTICEGLFISMAFKLLILLIGTWALFFRKRRADMPRVFVFRALLLVLIFLFVVSYWLFYGVRILDSRDRNYQGIVQYAVSLVDALLFIHYLAIVLLELRQLQPMFTLQVVRSTDGESRFYSLGHLSIQRAALVVLENYYKDFTIYNPNLLTASKFRAAKHMAGLKVYNVDGPSNNATGQSRAMIAAAARRRDSSHNELYYEEAEHERRVKKRKARLVVAVEEAFIHIQRLQAEEQQKAPGEVMDPREAAQAIFPSMARALQKYLRITRQQNYHSMESILQHLAFCITNGMTPKAFLERYLSAGPTLQYDKDRWLSTQWRLVSDEAVTNGLRDGIVFVLKCLDFSLVVNVKKIPFIILSEEFIDPKSHKFVLRLQSETSV
In the case of B2, in the data set “AUC”, the “stoichiometry N” value is ~6 and 3.
